We go through one molecule from patent US20130231277A1 (NEW YORK UNIVERSITY, published 2013).

Bounds are passed on as bounds.

For assay [1], the target named is T1, ectodomain of murine βKlotho (F53 to L995 of SEQ ID NO: 218) with a C-terminal FLAG tag (murine, UniProt Q99N32 53-995).
T1 construct: Expressed in HEK293 cells and purified from culture media; also called βKlotho ectodomain; not shown: C-terminal FLAG tag
T1 sequence: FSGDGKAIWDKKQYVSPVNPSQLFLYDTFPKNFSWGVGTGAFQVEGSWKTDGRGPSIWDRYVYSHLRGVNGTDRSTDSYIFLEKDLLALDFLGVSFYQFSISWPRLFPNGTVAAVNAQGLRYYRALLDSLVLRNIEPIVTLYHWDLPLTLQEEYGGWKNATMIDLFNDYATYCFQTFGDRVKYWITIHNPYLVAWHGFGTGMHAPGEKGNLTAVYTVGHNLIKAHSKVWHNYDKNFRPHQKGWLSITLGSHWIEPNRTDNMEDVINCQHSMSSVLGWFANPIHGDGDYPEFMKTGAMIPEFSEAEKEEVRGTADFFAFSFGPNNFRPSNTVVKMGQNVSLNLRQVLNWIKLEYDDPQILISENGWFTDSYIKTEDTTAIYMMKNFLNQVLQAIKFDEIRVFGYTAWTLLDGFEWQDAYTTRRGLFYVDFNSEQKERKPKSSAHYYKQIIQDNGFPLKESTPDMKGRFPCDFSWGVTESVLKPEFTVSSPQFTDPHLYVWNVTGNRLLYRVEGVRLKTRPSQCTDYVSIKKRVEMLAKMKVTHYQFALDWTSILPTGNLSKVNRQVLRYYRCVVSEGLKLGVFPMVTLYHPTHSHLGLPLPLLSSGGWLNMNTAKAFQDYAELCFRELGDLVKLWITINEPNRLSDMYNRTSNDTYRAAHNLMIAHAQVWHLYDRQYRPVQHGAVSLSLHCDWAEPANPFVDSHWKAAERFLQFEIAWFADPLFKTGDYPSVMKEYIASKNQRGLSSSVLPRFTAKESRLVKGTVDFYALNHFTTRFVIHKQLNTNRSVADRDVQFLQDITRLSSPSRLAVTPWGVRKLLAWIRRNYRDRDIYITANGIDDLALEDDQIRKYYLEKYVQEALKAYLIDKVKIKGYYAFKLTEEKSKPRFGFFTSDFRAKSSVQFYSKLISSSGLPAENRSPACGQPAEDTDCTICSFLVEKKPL
Put plainly: SPR competition; FGF21 immobilized, fixed βKlotho ectodomain mixed with increasing FGF21 (FIG. 7A). As to the method: Increasing concentrations of FGF21 were mixed with a fixed concentration of βKlotho ectodomain, and the mixtures were passed over a FGF21 chip. […] Increasing concentrations of FGF21²⁹⁻¹⁹⁰/FGF19¹⁹⁷⁻²¹⁶ chimera were mixed with a fixed concentration of βKlotho ectodomain, and the mixtures were passed over a FGF21 chip. […] The figure was created from the data shown in FIGS. 7A-B, which are representative of two independent experiments.
SPR experiments were performed on a Biacore 2000 instrument (Biacore AB), and all the protein-protein and protein-peptide interactions were studied at 25° C. in HBS-EP buffer (10 mM HEPES-NaOH, pH 7.4, 150 mM NaCl, 3 mM EDTA, 0.005% (v/v) polysorbate 20). Proteins were immobilized by amine coupling on flow channels of research grade CM5 chips (Biacore AB). Proteins were injected over a CM5 chip at a flow rate of 50 μl min⁻¹, and at the end of each protein injection (180 s), HBS-EP buffer (50 μl min⁻¹) was flowed over the chip to monitor dissociation for 180 s. In experiments where βKlotho binding to FGFR was analyzed, the chip surface was then regenerated by injecting 50 μl of 2.0 M NaCl in 10 mM sodium/potassium phosphate, pH 6.5. In experiments where α/βKlotho binding to FGF19/21/23 or binding of the FGFR1c-βKlotho complex to FGF21 was studied, 2.0 M NaCl in 10 mM sodium acetate, pH 4.5 was used for chip regeneration. […]

In assay [2] the target is T2, 1:1 complex of FGFR1c ligand-binding domain and αKlotho ectodomain (human; murine, UniProt P11362 142-365; O35082 35-982).
T2 construct: also called FGFR1c-αKlotho complex; binary FGFR1c-αKlotho complex; not shown: C-terminal FLAG tag
T2 sequence 1: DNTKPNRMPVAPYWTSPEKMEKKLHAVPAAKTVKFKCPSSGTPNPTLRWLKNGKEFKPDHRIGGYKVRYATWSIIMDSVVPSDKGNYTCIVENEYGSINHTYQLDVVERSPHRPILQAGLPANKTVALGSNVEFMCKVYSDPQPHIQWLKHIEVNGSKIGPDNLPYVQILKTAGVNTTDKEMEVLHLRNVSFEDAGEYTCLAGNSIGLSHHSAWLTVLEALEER
T2 sequence 2: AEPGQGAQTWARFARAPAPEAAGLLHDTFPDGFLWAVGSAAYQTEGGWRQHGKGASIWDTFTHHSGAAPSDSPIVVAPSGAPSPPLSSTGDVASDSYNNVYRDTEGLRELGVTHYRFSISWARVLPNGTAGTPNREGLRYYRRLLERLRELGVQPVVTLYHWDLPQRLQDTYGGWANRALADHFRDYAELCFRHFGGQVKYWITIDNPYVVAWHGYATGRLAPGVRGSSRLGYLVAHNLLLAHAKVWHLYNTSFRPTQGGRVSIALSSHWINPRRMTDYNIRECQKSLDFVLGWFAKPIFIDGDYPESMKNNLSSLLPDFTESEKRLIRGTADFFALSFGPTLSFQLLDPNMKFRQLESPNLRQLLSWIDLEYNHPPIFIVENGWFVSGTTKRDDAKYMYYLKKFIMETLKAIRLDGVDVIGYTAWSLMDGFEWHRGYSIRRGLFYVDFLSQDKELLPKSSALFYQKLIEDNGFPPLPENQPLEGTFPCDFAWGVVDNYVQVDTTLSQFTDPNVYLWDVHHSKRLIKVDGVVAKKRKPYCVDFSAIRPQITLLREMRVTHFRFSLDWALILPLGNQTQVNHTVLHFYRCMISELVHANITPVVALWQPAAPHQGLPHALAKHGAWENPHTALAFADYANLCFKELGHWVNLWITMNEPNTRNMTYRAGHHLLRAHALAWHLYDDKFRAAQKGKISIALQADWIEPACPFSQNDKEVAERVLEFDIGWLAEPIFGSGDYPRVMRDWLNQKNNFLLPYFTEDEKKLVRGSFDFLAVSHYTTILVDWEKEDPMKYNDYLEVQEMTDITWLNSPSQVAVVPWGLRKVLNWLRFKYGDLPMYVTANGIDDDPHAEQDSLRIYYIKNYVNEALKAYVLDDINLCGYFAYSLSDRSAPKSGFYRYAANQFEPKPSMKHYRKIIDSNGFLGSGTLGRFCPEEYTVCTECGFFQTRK
Put plainly: SPR; FGF21 immobilized, 1:1 FGFR1c-αKlotho complex passed over the chip (FIG. 1D).

Assay [3] has as its target FGFR1c endogenously expressed by HEK293 cells transiently transfected with murine βKlotho (UniProt P11362 22-822). Description: cell-based or functional assay.

FGFR1c endogenously expressed by HEK293 cells transiently transfected with murine βKlotho, sequence (P11362 22-822): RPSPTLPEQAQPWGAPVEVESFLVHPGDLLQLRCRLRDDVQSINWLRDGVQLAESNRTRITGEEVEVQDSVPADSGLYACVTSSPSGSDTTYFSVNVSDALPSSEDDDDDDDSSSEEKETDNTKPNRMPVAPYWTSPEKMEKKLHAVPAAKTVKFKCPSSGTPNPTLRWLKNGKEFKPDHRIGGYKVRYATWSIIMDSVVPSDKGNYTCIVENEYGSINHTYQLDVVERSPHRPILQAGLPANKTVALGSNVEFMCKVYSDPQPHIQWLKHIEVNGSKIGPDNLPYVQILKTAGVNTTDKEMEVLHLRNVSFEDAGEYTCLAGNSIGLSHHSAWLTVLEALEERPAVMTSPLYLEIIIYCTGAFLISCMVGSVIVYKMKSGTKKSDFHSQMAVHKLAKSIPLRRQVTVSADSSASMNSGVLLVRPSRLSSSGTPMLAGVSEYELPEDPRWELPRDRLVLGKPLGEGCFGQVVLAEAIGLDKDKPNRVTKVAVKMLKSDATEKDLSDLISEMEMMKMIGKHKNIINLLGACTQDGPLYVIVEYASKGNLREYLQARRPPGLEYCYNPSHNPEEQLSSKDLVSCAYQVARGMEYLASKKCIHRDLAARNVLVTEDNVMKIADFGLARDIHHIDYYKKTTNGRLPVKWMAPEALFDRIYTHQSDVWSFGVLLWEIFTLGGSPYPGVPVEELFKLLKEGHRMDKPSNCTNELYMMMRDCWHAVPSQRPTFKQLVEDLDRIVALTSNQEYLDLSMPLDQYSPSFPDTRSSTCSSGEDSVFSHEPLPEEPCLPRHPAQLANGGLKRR

B1: human FGF21, secreted bioactive form (H29 to S209 of SEQ ID NO: 100) (ligand)
chain: HPIPDSSPLLQFGGQVRQRYLYTDDAQQTEAHLEIREDGTVGGAADQSPESLLQLKALKPGVIQILGVKTSRFLCQRPDGALYGSLHFDPEACSFRELLLEDGYNVYQSEAHGLPLHLPGNKSPHRDPAPRGPARFLPLPGLPPALPEPPGILAPQPPDVGSSDPLSMVGPSQGRSPSYAS
notes: Used both immobilized on the SPR chip and in solution; also called wild-type FGF21; native FGF21
Regarding B1, the binding result in assay [1] is reported as “binds”; in assay [2], “no binding”. The “Induction of Egr1 protein expression (immunoblot, HEK293 cells co-expressing FGFR1c and βKlotho)” value in assay [3] is > 3 fold greater concentration than the 30 ng ml^-1 of the Q104M mutant.
